Experiments:
[1] = target: H-subunit of the restriction endonuclease CglI (H.CglI), wild type (Corynebacterium glutamicum); experiment: SEC + other: SAXS
[2] = target: H.CglI H282A (H/H motif mutant) (Corynebacterium glutamicum); experiment: SEC
[3] = target: H.CglI H282A + H290A (H/H motif double mutant) (Corynebacterium glutamicum); experiment: SEC
[4] = target: H.CglI H290A (H/H motif mutant) (Corynebacterium glutamicum); experiment: SEC
[5] = target: H.CglI L1 (V169A), Loop 163–172 mutant (Corynebacterium glutamicum); experiment: SEC
[6] = target: H.CglI Q405A (Motif VI mutant) (Corynebacterium glutamicum); experiment: SEC
[7] = target: H.CglI R379A (Motif V mutant) (Corynebacterium glutamicum); experiment: SEC
[8] = target: H.CglI R408A (Motif VI mutant) (Corynebacterium glutamicum); experiment: SEC
[9] = target: H.CglI ΔL (a deletion of the residues 165–172), Loop 163–172 mutant (Corynebacterium glutamicum); experiment: SEC

Q: For “H-subunit of the restriction endonuclease CglI (H.CglI), wild type (natural protein)”, which stoichiometry N [1] is on record?
A: Its stoichiometry N is 2.

Q: “H.CglI H282A (H/H motif mutant) (natural protein)” was tested. Which stoichiometry N [2] did it give?
A: Its stoichiometry N is 2.

Q: How did the stoichiometry N [3] turn out when “H.CglI H282A + H290A (H/H motif double mutant) (natural protein)” was run?
A: The stoichiometry N was 2.

Q: Which stoichiometry N [4] does the source give for “H.CglI H290A (H/H motif mutant) (natural protein)” here?
A: Its stoichiometry N is 2.

Q: With “H.CglI L1 (V169A), Loop 163–172 mutant (natural protein)” as the substance, how does the stoichiometry N [5] read?
A: The stoichiometry N was 2.

Q: How did the stoichiometry N [6] turn out when “H.CglI Q405A (Motif VI mutant) (natural protein)” was run?
A: Its stoichiometry N is 2.

Q: “H.CglI R379A (Motif V mutant) (natural protein)” was tested. Which stoichiometry N [7] did it give?
A: The stoichiometry N was 2.

Q: For “H.CglI R408A (Motif VI mutant) (natural protein)”, which stoichiometry N [8] is on record?
A: The stoichiometry N was 2.

Q: “H.CglI ΔL (a deletion of the residues 165–172), Loop 163–172 mutant (natural protein)” was tested. Which stoichiometry N [9] did it give?
A: Its stoichiometry N is 2.

— article PMC5861437
